In patent publication US20210187091A1 (DUKE UNIVERSITY, published 2021):

T1: Man9-V3 glycopeptide (HIV-1 clade B JRFL, Man9GlcNAc2 at N301 and at N332; disulfide bridge between C296 and C331 (cyclized); biotin tag)
T1 construct: 30-amino acid synthetic V3 glycopeptide based on the clade B JRFL mini-V3 construct (residues 305-320 deleted); captured by its biotin on streptavidin sensors, or tetramerized on streptavidin for sorting; also called Man-V3 glycopeptide; Man9-V3-biotin
T1 peptide: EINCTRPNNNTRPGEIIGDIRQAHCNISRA

B1: DH270.6 (antibody, V domains shown)
VH: QVQLVQSGAQMKNPGASVKVSCAPSGYTFTDFYIHWLRQAPGQGLQWMGWMNPQTGRTNTARNFQGRVIMTRDTSIGTAYMELRSLTSDDTAIYYCTTGGWISLYYDSSYYPNFDHWGQGTLLTVSS
VL: TSLLTQPASVSGSPGQSITISCTGTKYDVGSHDLVSWYQQYPGKVPKYMIYEVNKRPSGVSNRFSGSKSGNTASLTISGLRAEDEADYYCCSFGGSATVVCGGGTKVTVL
notes: Recombinant IgG
B2: DH270.IA3 (antibody, V domains shown)
VH: EVQLVESGPELKEPGASVKVSCKASGYTFTDYYIHWVRQAPGQGLEWMAWINPTTGRSSFARGFQGRVIMTRETSVSTAYMELRRLRSDDTAVYYCAKAGYIALYVDYSGYPNFNSWGQGTLVTVSS
VL: QSALTQPASVSGSPGQSITISCTGTSYDVGSYNLVSWYQQHPGKAPKLIIYEVSQWPSGVSKRFSGSKSGNTASLTISGLQAEDEAHYYCCSYAGSSTVIFGGGTSLTVL
B3: DH270.IA4 (antibody, V domains shown)
VH: QVQLVQSGAEVKKPGASVKVSCKASGYTFTDYYIHWVRQAPGQGLEWMGWINPNTGRTNYAQKFQGRVTMTRDTSISTAYMELSRLRSDDTAVYYCARGGWIGLYYDSSGYPNFDYWGQGTLVTVSS
VL: QSALTQPASVSGSPGQSITISCTGTSYDVGSYNLVSWYQQHPGKAPKLMIYEVSKRPSGVSNRFSGSKSGNTASLTISGLQAEDEADYYCCSYAGSSTVIFGGGTKLTVL
notes: Inferred intermediate, recombinant IgG; copies: 2 + 2
B4: DH270.IA2 (antibody, V domains shown)
VH: QVQLVQSGAEMKKPGASVKVSCKASGYTFTDYYIHWVRQAPGQGLEWMGWINPNTGRTNYAQKFQGRVTMTRDTSISTAYMELSRLTSDDTAVYYCATGGWIGLYYDSSGYPNFDYWGQGTLVTVSS
VL: QSALTQPASVSGSPGQSITISCTGTSYDVGSYNLVSWYQQHPGKAPKYMIYEVNKRPSGVSNRFSGSKSGNTASLTISGLQAEDEADYYCCSYAGSSTVIFGGGTKLTVL
notes: Inferred intermediate, recombinant IgG
B5: DH270.UCA (antibody, V domains shown)
VH: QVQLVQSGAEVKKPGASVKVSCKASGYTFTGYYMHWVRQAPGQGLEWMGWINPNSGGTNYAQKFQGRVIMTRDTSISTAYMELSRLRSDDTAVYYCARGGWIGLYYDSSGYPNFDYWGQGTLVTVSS
VL: QSALTQPASVSGSPGQSITISCTGTSSDVGSYNLVSWYQQHPGKAPKLMIYEVSKRPSGVSNRFSGSKSGNTASLTISGLQAEDEADYYCCSYAGSSTVIFGGGTKLTVL
notes: also called UCA4; DH270UCA4

Key:
[1] = biological target: T1, Man9-V3 glycopeptide; test: BLI, biotinylated Man9-V3 on streptavidin sensors, antibody in solution, bivalent avidity model
Experimental: Kinetics analyses were performed by global curve fitting using bivalent avidity model and as described in methods (“Affinity measurements” section).
Antibody binding kinetic rate constants (ka, kd) of the Man9-V3 glycopeptide and its aglycone form (16) were measured by Bio-layer Interferometry (BLI, ForteBio Octet Red96) measurements. The BLI assay was performed using streptavidin coated sensors (ForteBio) to capture either biotin-tagged Man₉-V3 glycopeptide or Aglycone-V3 peptide. The V3 peptide immobilized sensors were dipped into varying concentrations of antibodies following blocking of sensors in BSA (0.1%). Antibody concentrations ranged from 0.5 to 150 μg/mL and non-specific binding interactions were subtracted using the control anti-RSV Palivizumab (Synagis) mAb. Rate constants were calculated by global curve fitting analyses to the Bivalent Avidity model of binding responses with a 10 min association and 15 min dissociation interaction time. The dissociation constant (Kd) values without avidity contribution were derived using the initial components of the association and dissociation rates (ka1 and kd1) respectively.

[2] = biological target: T1, Man9-V3 glycopeptide; test: BLI, biotinylated Man9-V3 on streptavidin sensors, antibody in solution
[3] = biological target: T2, cell surface membrane expressed CH848 TF Env trimer (CHO cells) (HIV-1 clade C (CH848 …)); test: flow cytometry on CHO cells expressing CH848 TF Env trimer
T2 construct: also called cell surface membrane expressed gp160 trimers; CH848 Env trimer expressed on the cell surface of CHO cells

Binder | binding result [3] | further results
B1 | – | Kd [1]: 188 nM
B2 | – | Kd [2]: > 10000 nM
B3 | no binding (tested: 5 µg/mL) | –
B4 | no binding (tested: 5 µg/mL) | –
B5 | no binding (tested: 5 µg/mL) | –
